Where a chain is given by its changes, count along the chain named.
B1: BIIB-9-884 (antibody, V domains shown)
VH: QLQLQESGPGLVKPSETLSLTCTVSGGSISSSDYYWGWIRQPPGKGLEWIGSIYYSGSTYYNPSLKSRVTISVDTSKNQFSLKLSSVTAADTAVYYCARSPRHKVRGPNWFDPWGQGTLVTVSS
VL: EIVLTQSPGTLSLSPGERATLSCRASQSVSSSYLAWYQQKPGQAPRLLIYGASSRATGIPDRFSGSGSGTDFTLTISRLEPEDFAVYYCQQYHLLPPTFGGGTKVEIK
B2: BIIB-9-579 (antibody, V domains shown)
VH: QVQLVQSGAEVKKPGASVKVSCKASGYTFTSYYMVWVRQAPGQGLEWMGIINPSGGSTSYAQKFQGRVTMTRDTSTSTVYMELSSLRSEDTAVYYCARGPWYSYYYMDVWGKGTTVTVSS
VL: DIQMTQSPSSLSASVGDRVTITCRASQSISSYLNWYQQKPGKAPKLLIYGASSLQSGVPSRFSGSGSGTDFTLTISSLQPEDFATYYCQQAFSFPFTFGGGTKVEIK
B3: BIIB-9-1280 (antibody, V domains shown)
VH: B2 VH
VL: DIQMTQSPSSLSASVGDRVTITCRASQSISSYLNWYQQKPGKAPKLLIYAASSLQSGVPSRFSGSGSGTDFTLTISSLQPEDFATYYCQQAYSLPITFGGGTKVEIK
B4: BIIB-9-408 (antibody, V domains shown)
VH: QVQLVQSGAEVKKPGASVKVSCKASGYTFTSYYMHWVRQAPGQGLEWMGIINPSGGSTTYAQKFQGRVTMTRDTSTSTVYMELSSLRSEDTAVYYCARDPGAYDDWSGYDDYGMDVWGQGTTVTVSS
VL: EIVLTQSPATLSLSPGERATLSCRASQSVSSYLAWYQQKPGQAPRLLIYDASNRATGIPARFSGSGSGTDFTLTISSLEPEDFAVYYCQQAFVWPPITFGGGTKVEIK
B5: BIIB-9-626 (antibody, V domains shown)
VH: QVQLVQSGAEVKKPGASVKVSCKASGYTFTSYYMHWVRQAPGQGLEWMGVINPSGGSTSYAQKFQGRVTMTRDTSTSTVYMELSSLRSEDTAVYYCARDLQYSMTYFDYWGQGTLVTVSS
VL: DIQMTQSPSTLSASVGDRVTITCRASQSISSWLAWYQQKPGKAPKLLIYKASSLESGVPSRFSGSGSGTEFTLTISSLQPDDFATYYCQQDGSYPPLTFGGGTKVEIK
B6: BIIB-9-452 (antibody, V domains shown)
VH: QVQLVQSGAEVKKPGASVKVSCKASGYTFTSYYMHWVRQAPGQGLEWMGIINPSGGSTSYAQKFQGRVTMTRDTSTSTVYMELSSLRSEDTAVYYCARDGRLSYTWDRWGQGTLVTVSS
VL: EIVMTQSPATLSVSPGERATLSCRASQSVSSNLAWYQQKPGQAPRLLIYGASTRATGIPARFSGSGSGTEFTLTISSLQSEDFAVYYCQQANNFPFTFGGGTKVEIK
B7: BIIB-9-566 (antibody, V domains shown)
VH: QVQLVQSGAEVKKPGASVKVSCKASGYTFTSYYMVWVRQAPGQGLEWMGIINPSGGSTSYAQKFQGRVTMTRDTSTSTVYMELSSLRSEDTAVYYCARVPTYRYSYLAFDIWGQGTMVTVSS
VL: B6 VL with N32S, A91H, N92D, F94W, F96P
B8: BIIB-9-469 (antibody, V domains shown)
VH: QVQLVQSGAEVKKPGASVKVSCKASGYTFTSYYMHWVRQAPGQGLEWMGIINPSGGSTSYAQKFQGRVTMTRDTSTSTVYMELSSLRSEDTAVYYCARDLGYGRSYDFDLWGRGTLVTVSS
VL: B6 VL with Y49F, A91S
B9: BIIB-9-1282 (antibody, V domains shown)
VH: B7 VH
VL: B6 VL with A91H, N93H, F94L, F96I
B10: BIIB-9-889 (antibody, V domains shown)
VH: QLQLQESGPGLVKPSETLSLTCTVSGGSISSSSYYWGWIRQPPGKGLEWIGSIYYSGSTYYNPSLKSRVTISVDTSKNQFSLKLSSVTAADTAVYYCARDVGWYTEYFDLWGRGTLVTVSS
VL: B6 VL with N92F, F94W, F96P

What follows are binders tested against free FIXa (activated Factor IX) (UniProt P00740 47-191; P00740 227-461) (assay: BLI).

Going from B1 to B2, the Kd rises from 1.79 nM to 11.3 nM (6.3-fold). The first binds more tightly here.

Compared with B3, B4 is 38-fold lower in Kd: 51.7 nM for the first, 1.36 nM for the second.

Compared with B5, B6 is 14-fold lower in Kd: 166 nM for the first, 11.7 nM for the second. The second binds more tightly here.

Compared with B7, B8 is 1.6-fold lower in Kd: 21.4 nM for the first, 13.3 nM for the second.

B9 and B10 are within 1.5-fold of each other in Kd: 43.9 nM for the first, 40.7 nM for the second.

From patent US20230192896A1 (published 2023)
